Article PMC11615109, “PinX1 suppresses cancer progression by inhibiting telomerase activity in cervical squamous cell carcinoma and endocervical adenocarcinoma” (Genes & Diseases, 2024)
Blank lines part the entries; values can stand above or below the molecule they belong to.

Tests used:
[1] = target: TRF1 TRFH (TRF homology) domain; test: crystal structure; purified TRF1 TRFH-PinX1TBM complex, 2.7 Å
[2] = target: T1, 3×Flag-TERT (purified human telomerase) (human, UniProt O14746 1-1132); test: pull-down; GST-PinX1-C (132-328) captured by 3×Flag-TERT (MBP-3×Flag as control), Western blot; details: both partners purified
T1 construct: TERT, the protein subunit of human telomerase; Purified as telomerase; also called purified telomerase; source: human telomerase, purified
T1 sequence (O14746 whole entry): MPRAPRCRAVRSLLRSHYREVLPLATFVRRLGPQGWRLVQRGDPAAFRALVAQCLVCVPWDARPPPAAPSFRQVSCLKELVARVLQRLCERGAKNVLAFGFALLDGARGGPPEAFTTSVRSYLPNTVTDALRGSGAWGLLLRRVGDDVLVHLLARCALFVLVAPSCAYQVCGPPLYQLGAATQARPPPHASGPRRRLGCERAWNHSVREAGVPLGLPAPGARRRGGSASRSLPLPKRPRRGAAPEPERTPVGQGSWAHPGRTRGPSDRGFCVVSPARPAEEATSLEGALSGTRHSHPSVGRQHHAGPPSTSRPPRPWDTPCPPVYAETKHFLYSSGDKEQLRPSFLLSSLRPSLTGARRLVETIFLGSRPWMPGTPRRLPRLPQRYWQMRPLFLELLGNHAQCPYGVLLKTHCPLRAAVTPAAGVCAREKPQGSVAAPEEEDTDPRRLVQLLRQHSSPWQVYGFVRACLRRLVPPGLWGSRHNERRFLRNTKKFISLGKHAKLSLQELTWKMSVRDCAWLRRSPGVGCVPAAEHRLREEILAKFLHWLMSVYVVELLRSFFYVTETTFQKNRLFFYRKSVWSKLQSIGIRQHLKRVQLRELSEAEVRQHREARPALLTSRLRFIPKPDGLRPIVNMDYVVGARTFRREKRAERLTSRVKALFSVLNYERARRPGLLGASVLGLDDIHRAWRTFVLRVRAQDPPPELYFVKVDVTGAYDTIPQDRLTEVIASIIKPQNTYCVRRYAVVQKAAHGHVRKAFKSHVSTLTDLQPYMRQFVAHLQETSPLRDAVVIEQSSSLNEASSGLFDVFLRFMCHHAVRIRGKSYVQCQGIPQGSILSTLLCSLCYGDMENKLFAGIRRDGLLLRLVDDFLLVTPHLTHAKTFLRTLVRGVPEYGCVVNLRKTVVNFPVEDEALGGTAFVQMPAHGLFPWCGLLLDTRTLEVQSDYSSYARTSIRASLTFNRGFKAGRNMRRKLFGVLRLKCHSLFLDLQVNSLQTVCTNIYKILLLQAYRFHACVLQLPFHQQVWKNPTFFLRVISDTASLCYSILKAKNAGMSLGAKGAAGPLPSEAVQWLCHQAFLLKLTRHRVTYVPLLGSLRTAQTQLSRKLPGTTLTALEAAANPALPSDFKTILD

[3] = target: T1, 3×Flag-TERT (purified human telomerase); test: pull-down; 3×Flag-TERT (purified telomerase) captured by GST-PinX1 constructs (GST as control), silver staining and Western blot; details: both partners purified

stoichiometry N [1]: 2
Molecule: TRF1 TRFH (TRF homology) domain (domain or fragment)

binding result [2]: binds
B1: GST-PinX1(132-328) (domain or fragment, UniProt Q96BK5 132-328, looked up)
chain: GKDLSSRSKTDLDCIFGKRQSKKTPEGDASPSTPEENETTTTSAFTIQEYFAKRMAALKNKPQVPVPGSDISETQVERKRGKKRNKEATGKDVESYLQPKAKRHTEGKPERAEAQERVAKKKSAPAEEQLRGPCWDQSSKASAQDAGDHVQPPEGRDFTLKPKKRRGKKKLQKPVEIAEDATLEETLVKKKKKKDSK
notes: PinX1 residues 132-328; also called GST-PinX1-C (132–328); CTD (C-terminal domain)

binding result [3]: binds
B2: GST-PinX1(203-328) (domain or fragment, UniProt Q96BK5 203-328, looked up)
chain: SETQVERKRGKKRNKEATGKDVESYLQPKAKRHTEGKPERAEAQERVAKKKSAPAEEQLRGPCWDQSSKASAQDAGDHVQPPEGRDFTLKPKKRRGKKKLQKPVEIAEDATLEETLVKKKKKKDSK
notes: PinX1 residues 203-328 (TID)
